Measurements from patent US20220162313A1 (Xencor, published 2022).

Biological target: T1, human SSTR2 (human, UniProt P30874 1-369)
T1 construct: whole, on cells; also called human somatostatin receptor 2; cell surface human SSTR2
Assay: flow cytometry on human SSTR2-transfected CHO cells, PE-labeled secondary antibody
Protocol: Cell surface binding of anti-SSTR2 antibodies and exemplary anti-SSTR2×anti-CD3 bispecific antibodies were assessed using human SSTR2-transfected CHO cells. Cells were incubated with indicated test articles for 45 minutes on ice and centrifuged. Cells were resuspended with staining buffer containing phycoerythrin (PE) labeled secondary antibody (2 μg/mL; goat anti-human IgG) and then incubated for 45 minutes on ice. Cells were centrifuged twice and then resuspsended with staining buffer. Binding was measured by flow cytometry (FIGS. 17A-P).
Cell surface binding of XmAb18087 and control anti-RSV×anti-CD3 bispecific antibody (XENP13245) were assessed using humanSSTR2-transfected CHO cells and cynoSSTR2-transfected CHO cells. Cell surface binding was also assessed using parental CHO cells as control. Binding was measured by flow cytometry using phycoerythrin (PE) labeled secondary antibody as generally described in Example 1C.

T1 sequence (P30874 whole entry): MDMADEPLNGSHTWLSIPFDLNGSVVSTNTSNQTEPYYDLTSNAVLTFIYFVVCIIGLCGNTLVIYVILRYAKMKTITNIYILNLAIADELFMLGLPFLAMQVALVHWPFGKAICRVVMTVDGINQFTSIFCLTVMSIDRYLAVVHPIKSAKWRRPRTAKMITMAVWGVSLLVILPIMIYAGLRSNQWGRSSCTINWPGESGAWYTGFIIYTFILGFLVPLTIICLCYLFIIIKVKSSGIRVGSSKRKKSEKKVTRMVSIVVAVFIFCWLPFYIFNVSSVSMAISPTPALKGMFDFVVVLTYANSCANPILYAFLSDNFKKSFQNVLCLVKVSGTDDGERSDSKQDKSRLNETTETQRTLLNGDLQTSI

- binding result: binds
B1: XmAb18087 (bispecific antibody)
heavy: EVQLVESGGGLVQPGGSLRLSCAASGFTFSDYGMAWFRQAPGKGLEWVSFISNLGYSIYYADSVKGRFTISRDNAKNSLYLQMNSLRAEDTAVYYCARAPYDYDSFDPMDYWGQGTLVTVSSASTKGPSVFPLAPSSKSTSGGTAALGCLVKDYFPEPVTVSWNSGALTSGVHTFPAVLQSSGLYSLSSVVTVPSSSLGTQTYICNVNHKPSDTKVDKKVEPKSCDKTHTCPPCPAPPVAGPSVFLFPPKPKDTLMISRTPEVTCVVVDVKHEDPEVKFNWYVDGVEVHNAKTKPREEEYNSTYRVVSVLTVLHQDWLNGKEYKCKVSNKALPAPIEKTISKAKGQPREPQVYTLPPSREEMTKNQVSLTCDVSGFYPSDIAVEWESDGQPENNYKTTPPVLDSDGSFFLYSKLTVDKSRWEQGDVFSCSVMHEALHNHYTQKSLSLSPGK
chain: not shown
light: not shown
notes: also called XENP18087; XENP018087
